Source: patent US20240091260A1

Target: PRAME … (ALY) peptide in complex with HLA-A*0201 (HLA-A2) (human)
Assay: cell-based or functional assay

Substance: PRAME mTCRCAR (chimeric antigen receptor with an scFv from Pr20, IgG4 hinge, 4-1BB costimulatory and CD3zeta signaling domains), on human T cells
- cell death of neuroblastoma cells (SK-N-SH) with CD8+ CAR T cells at 24 hours: 98%
